Data as given in PMC10539794, “Structural polymorphism and substrate promiscuity of a ribosome-associated molecular chaperone” (Magnetic resonance, 2021).
Where no end group is shown, it is not given here.

How the values were obtained:
[1] = biological target: FITC-labeled IcdH3 peptide (ICDH 177-194); assay: fluorescence polarisation; FITC-labeled peptide at 1 µM, TF serially diluted (0.1-1000 µM); 20 mM Tris pH 7.4, 100 mM NaCl; one-site binding model; apparent constants
[2] = biological target: FITC-labeled IcdH2 peptide (ICDH 125-137); assay: as above
[3] = biological target: FITC-labeled IcdH1 peptide (ICDH 55-70); assay: as above
[4] = biological target: T1, E. coli TF (trigger factor), full-length (Escherichia coli, UniProt P0A850); assay: Fluorescence polarization analysis of TF binding to FITC-labeled peptides; settings: N-terminally FITC-labeled peptide 1 µM, full-length TF 0.1-1000 µM, 20 mM Tris pH 7.4, 100 mM NaCl, ex 485 nm / em 535 nm, one-site binding model, errors from three technical replicates
T1 construct: His6 (N); made in house
T1 sequence (P0A850 1-432): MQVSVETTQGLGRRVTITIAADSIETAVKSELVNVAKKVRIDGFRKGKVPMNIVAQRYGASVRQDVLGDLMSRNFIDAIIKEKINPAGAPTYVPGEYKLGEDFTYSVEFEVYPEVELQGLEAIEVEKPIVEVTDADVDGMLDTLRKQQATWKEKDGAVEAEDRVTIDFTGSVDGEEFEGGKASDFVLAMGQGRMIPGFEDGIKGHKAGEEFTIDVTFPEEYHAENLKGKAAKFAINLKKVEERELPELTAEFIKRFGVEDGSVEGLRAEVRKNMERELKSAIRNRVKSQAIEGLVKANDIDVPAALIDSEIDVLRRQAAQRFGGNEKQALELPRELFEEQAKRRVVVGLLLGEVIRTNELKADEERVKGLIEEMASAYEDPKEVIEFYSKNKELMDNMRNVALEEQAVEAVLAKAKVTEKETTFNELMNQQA
Description: A fraction of all these peptides were subsequently labeled with FITC at the N-terminus for fluorescence polarization (FP) measurements. […] For FP analysis, FITC-labeled peptides were dissolved in DMSO to yield a stock solution of 4 M. They were subsequently diluted by 20 mM Tris (pH 7.4) and 100 mM NaCl to yield a molar concentration of 100 µM . 200 µL of TF variants was transferred into a 96-well plate followed by serial dilution by the same buffer in a 1:1 dilution ratio. The final protein concentrations were between 0.1 and 1000 µM . After serial dilution, 50 µL of protein solutions of various protein concentrations was transferred to new wells by an eight-channel pipette and was mixed with FITC-labeled peptide solution to yield a peptide concentration of 1 µM . FP measurements of these samples were carried out using a plate reader (Paradigm, Molecular Device, USA) with an excitation wavelength of 485 nm and an emission wavelength of 535 nm. The integration time was set to 250 ms.

| Substance | Kd [1] | Kd [2] | Kd [3] | Kd [4] |
| --- | --- | --- | --- | --- |
| E. coli trigger factor (TF), full length (from UniProt P0A850 1-432) (natural protein) | 132 µM | 8.6 µM | 28.2 µM |  |
| KAYKGERKISWMEIYT [IcdH1] |  |  |  | 28.2 ± 1 µM |
| KFLREEMGVKKIRFPEHC [IcdH3] |  |  |  | 132 ± 9 µM |
| YICLRPVRYYQGT [IcdH2] |  |  |  | 8.6 ± 0.3 µM |
